Measured values from paper PMC2824011.

Substrate: O=c1ccc2nc3ccc(O[C@H]4O[C@H](CO)[C@@H](O)[C@H](O)[C@@H]4O)cc3oc-2c1
Assay: continuous fluorometric kinetic assay of purified enzyme
Type: biochemical, Drosophila melanogaster

B1: Golgi α-mannosidase II (dGMII) (Drosophila melanogaster) (protein)
chain: DDPIRPPLKVARSPRPGQCQDVVQDVPNVDVQMLELYDRMSFKDIDGGVWKQGWNIKYDPLKYNAHHKLKVFVVPHSHNDPGWIQTFEEYYQHDTKHILSNALRHLHDNPEMKFIWAEISYFARFYHDLGENKKLQMKSIVKNGQLEFVTGGWVMPDEANSHWRNVLLQLTEGQTWLKQFMNVTPTASWAIDPFGHSPTMPYILQKSGFKNMLIQRTHYSVKKELAQQRQLEFLWRQIWDNKGDTALFTHMMPFYSYDIPHTCGPDPKVCCQFDFKRMGSFGLSCPWKVPPRTISDQNVAARSDLLVDQWKKKAELYRTNVLLIPLGDDFRFKQNTEWDVQRVNYERLFEHINSQAHFNVQAQFGTLQEYFDAVHQAERAGQAEFPTLSGDFFTYADRSDNYWSGYYTSRPYHKRMDRVLMHYVRAAEMLSAWHSWDGMARIEERLEQARRELSLFQHHDGITGTAKTHVVVDYEQRMQEALKACQMVMQQSVYRLLTKPSIYSPDFSFSYFTLDDSRWPGSGVEDSRTTIILGEDILPSKHVVMHNTLPHWREQLVDFYVSSPFVSVTDLANNPVEAQVSPVWSWHHDTLTKTIHPQGSTTKYRIIFKARVPPMGLATYVLTISDSKPEHTSYASNLLLRKNPTSLPLGQYPEDVKFGDPREISLRVGNGPTLAFSEQGLLKSIQLTQDSPHVPVHFKFLKYGVRSHGDRSGAYLFLPNGPASPVELGQPVVLVTKGKLESSVSVGLPSVVHQTIMRGGAPEIRNLVDIGSLDNTEIVMRLETHIDSGDIFYTDLNGLQFIKRRRLDKLPLQANYYPIPSGMFIEDANTRLTLLTGQPLGGSSLASGELEIMQDRRLASDDERGLGQGVLDNKPVLHIYRLVLEKVNNCVRPSELHPAGYLTSAAHKASQSLLDPLDKFIFAENEWIGAQGQFGGDHPSAREDLDVSVMRRLTKSSAKTQRVGYVLHRTNLMQCGTPEEHTQKLDVCHLLPNVARCERTTLTFLQNLEHLDGMVAPEVCPMETAAYVSSHSS
Km: 200 (±73) μM
